How the values were obtained:
Experiment in all cases: cell-based or functional assay
[1] = target: T1, IL-13Rα1 receptor on Jurkat cells (UniProt P78552)
T1 sequence: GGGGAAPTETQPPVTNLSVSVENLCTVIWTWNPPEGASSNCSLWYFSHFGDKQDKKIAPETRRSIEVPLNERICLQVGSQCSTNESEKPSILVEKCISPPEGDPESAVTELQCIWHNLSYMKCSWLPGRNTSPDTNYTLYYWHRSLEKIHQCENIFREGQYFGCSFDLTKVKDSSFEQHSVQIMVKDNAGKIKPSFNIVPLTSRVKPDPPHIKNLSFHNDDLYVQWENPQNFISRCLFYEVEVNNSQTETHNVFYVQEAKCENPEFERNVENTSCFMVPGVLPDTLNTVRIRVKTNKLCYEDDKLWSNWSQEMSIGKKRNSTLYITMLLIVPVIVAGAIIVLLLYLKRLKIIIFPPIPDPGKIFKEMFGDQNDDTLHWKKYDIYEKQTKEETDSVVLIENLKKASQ

[2] = target: CMV C7 TCR on C7 TCR-expressing T cells
[3] = target: IG4 TCR (variant not stated) on IG4 TCR-expressing T cells
[4] = target: 868 TCR (Beta Chain-P2A-Alpha Chain) on 868 TCR-expressing T cells
Chain of 868 TCR (Beta Chain-P2A-Alpha Chain) on 868 TCR-expressing T cells (chain, as listed by the source): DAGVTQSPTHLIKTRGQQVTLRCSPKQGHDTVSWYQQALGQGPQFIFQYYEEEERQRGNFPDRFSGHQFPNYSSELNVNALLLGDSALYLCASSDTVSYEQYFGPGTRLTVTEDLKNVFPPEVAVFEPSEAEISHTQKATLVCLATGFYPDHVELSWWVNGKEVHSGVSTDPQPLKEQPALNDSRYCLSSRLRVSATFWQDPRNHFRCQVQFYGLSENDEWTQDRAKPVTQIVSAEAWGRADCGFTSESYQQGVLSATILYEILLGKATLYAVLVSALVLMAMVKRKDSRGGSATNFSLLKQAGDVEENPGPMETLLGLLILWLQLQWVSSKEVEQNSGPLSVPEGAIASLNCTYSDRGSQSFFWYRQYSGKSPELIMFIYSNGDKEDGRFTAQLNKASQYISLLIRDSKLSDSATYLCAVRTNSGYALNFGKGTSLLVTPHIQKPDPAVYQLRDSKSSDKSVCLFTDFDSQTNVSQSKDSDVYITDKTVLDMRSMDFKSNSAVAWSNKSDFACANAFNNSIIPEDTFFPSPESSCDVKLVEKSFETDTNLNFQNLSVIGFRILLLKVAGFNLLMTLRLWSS

Chain of CMV C7 TCR on C7 TCR-expressing T cells (chain, as listed by the source): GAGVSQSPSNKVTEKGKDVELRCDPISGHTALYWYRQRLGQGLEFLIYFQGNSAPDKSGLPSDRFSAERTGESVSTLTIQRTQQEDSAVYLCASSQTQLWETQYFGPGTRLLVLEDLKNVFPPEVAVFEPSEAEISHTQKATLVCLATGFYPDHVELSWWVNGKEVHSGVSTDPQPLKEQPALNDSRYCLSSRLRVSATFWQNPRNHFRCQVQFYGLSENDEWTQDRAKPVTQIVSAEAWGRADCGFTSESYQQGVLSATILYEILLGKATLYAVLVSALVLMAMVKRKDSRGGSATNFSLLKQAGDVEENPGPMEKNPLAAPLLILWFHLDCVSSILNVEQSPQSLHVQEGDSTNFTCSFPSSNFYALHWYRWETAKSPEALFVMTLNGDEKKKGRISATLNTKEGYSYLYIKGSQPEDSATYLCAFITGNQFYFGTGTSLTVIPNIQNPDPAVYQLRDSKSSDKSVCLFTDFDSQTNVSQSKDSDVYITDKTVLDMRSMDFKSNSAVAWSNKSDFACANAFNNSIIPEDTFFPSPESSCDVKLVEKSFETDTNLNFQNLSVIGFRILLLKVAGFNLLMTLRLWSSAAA

## IL-13 - CD8α stalk linker (SEQ ID NO: 4) - PDGFR transmembrane domain, displayed on lentivirus (from UniProt P35225 35-146) (ligand)
[1]
  infection of Jurkat cells bearing the IL13Rα1 receptor (GFP reporter): 88.5%

## IL-13 - GAPGAS linker (SEQ ID NO: 5) - PDGFR transmembrane domain, displayed on lentivirus (from UniProt P35225 35-146) (ligand)
[1]
  infection of Jurkat cells bearing the IL13Rα1 receptor (GFP reporter): 1%

## IL-13 extracellular targeting domain: full-length IL-13 - IgG4 hinge linker - PDGFR transmembrane domain, displayed on lentivirus (from UniProt P35225 35-146) (ligand)
[1]
  transduction (cells expressing the GFP reporter after mixing): 85.2%

## IL-13 - PDGFR linker (SEQ ID NO: 3) - PDGFR transmembrane domain, displayed on lentivirus (from UniProt P35225 35-146) (ligand)
[1]
  infection of Jurkat cells bearing the IL13Rα1 receptor (GFP reporter): 6.1%

## disulfide-stabilized CMV NLV pMHC displayed on lentivirus (peptide-MHC)
[2]
  transduction rate: 21.8%

## disulfide-stabilized NYESO-1 pMHC displayed on lentivirus (peptide-MHC)
[3]
  transduction rate: 19%

## disulfide-stabilized SL9 pMHC displayed on lentivirus (peptide-MHC)
[4]
  transduction rate: 22.1%

— US20260029399A1
